In US20100022445A1 (BAXALTA, published 2010):
*1 amine or outer side, *2 acyl side, *3 side chain or, on linkers, in order; H or OH if unused. Where no end group is shown, it is not given here. [ ]: non-standard residue; d: D form. NH(CH2)3(OCH2CH2)2O(CH2)3NH = C(CN[*:1])COCCOCCOCCCN[*:2]

Tests used:
HERG channel = HERG channel (UniProt Q12809 1-1159, limits assumed); test: cell-based or functional assay
mouse plasma = test: equilibrium dialysis (HTD-96, 12-14 kD cut-off), 5 µM A01 in undiluted mouse plasma, 6 h at 37 °C, LC/MS/MS
human plasma = test: equilibrium dialysis (HTD-96, 12-14 kD cut-off), 5 µM A01 in undiluted human plasma, 6 h at 37 °C, LC/MS/MS

Sequence of HERG channel (Q12809 whole entry): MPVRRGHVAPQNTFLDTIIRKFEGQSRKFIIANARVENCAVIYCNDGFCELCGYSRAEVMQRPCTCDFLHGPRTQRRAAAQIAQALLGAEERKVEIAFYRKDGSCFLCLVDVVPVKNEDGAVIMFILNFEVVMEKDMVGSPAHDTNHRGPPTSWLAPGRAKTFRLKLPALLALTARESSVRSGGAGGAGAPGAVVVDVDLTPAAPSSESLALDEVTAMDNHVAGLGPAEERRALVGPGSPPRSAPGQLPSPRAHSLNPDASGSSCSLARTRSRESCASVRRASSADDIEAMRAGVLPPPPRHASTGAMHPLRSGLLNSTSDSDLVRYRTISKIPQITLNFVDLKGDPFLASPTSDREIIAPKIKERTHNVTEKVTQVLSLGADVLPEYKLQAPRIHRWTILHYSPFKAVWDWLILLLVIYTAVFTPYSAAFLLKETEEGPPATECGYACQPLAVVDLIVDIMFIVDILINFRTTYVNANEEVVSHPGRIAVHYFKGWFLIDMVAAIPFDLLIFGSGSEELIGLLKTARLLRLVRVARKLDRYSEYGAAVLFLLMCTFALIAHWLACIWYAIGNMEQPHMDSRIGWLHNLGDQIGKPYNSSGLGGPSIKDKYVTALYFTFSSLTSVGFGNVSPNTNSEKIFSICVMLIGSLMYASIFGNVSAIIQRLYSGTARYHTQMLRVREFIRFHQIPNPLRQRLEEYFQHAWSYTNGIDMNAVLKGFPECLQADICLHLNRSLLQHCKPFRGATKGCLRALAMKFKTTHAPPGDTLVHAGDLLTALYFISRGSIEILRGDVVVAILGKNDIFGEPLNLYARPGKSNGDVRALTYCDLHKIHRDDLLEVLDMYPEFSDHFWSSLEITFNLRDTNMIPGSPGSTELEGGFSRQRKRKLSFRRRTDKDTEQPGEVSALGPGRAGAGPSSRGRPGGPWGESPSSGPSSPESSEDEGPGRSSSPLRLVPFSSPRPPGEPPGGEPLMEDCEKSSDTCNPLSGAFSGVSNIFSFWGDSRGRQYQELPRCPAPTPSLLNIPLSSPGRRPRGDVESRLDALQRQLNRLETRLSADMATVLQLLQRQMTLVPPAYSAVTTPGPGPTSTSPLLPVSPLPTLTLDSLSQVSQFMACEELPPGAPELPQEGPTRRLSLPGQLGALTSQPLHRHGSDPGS

Row | Binder | HERG inhibition patch-clamp (% Inhibition of Tail Current at 1 µM) (HERG channel) [%] | HERG inhibition Rb+ efflux (% Inhibition at 10 µM) (HERG channel) [%] | also measured
1 | PEG5000-RMKFDVWDLYFEIVW-NH2 [A16 (PEG5000-RMKFDVWDLYFEIVW-NH2)] | 22.2 | – | –
2 | ERMEFDVWDLYFEIVW-NH2 [A09 (ERMEFDVWDLYFEIVW-NH2)] | – | -1.6 | –
3 | Ac-PMKFDVWDLYFEIVW-NH2 [A02 (Ac-PMKFDVWDLYFEIVW-NH2)] | – | -3.3 | –
4 | Ac-WDLYFEIVW[NH(CH2)3(OCH2CH2)2O(CH2)3NH]E [A07 (Ac-WDLYFEIVW-ttds-E)] | – | -3.4 | –
5 | Ac-RMKFDVWDLYFEIVW-NH2 [A01 (Ac-RMKFDVWDLYFEIVW-NH2)] | 16.5 | – | –
6 | Ac-WDLYFEIVWE [A06 (Ac-WDLYFEIVWE)] | – | -6.4 | –
7 | Ac-[dC][dI][dM][dF][dW][dY][dD][dE][dY][dE]-NH2 (SMILES CC[C@@H](C)[C@@H](NC(=O)[C@@H](CS)NC(C)=O)C(=O)N[C@H](CCSC)C(=O)N[C@H](Cc1ccccc1)C(=O)N[C@H](Cc1c[nH]c2ccccc12)C(=O)N[C@H](Cc1ccc(O)cc1)C(=O)N[C@H](CC(=O)O)C(=O)N[C@H](CCC(=O)O)C(=O)N[C@H](Cc1ccc(O)cc1)C(=O)N[C@H](CCC(=O)O)C(N)=O) [B03 (Ac-cimfwydeye-NH2)] | 84.5 | -2.1 | –
8 | Ac-WDLYFEIVW-NH2 [A05 (Ac-WDLYFEIVW-NH2)] | 14.5 | – | –
9 | Ac-RMKFDVWDLYFEIVW-NH2 [A01 (Ac-…-NH2)] | – | – | Average % Bound (mouse plasma): > 99.2%; Average % Bound (human plasma): > 98.3%
